According to patent US20230136228A1 (LAMKAP BIO ALPHA, published 2023):
Residue numbers refer to the chain shown, from its start. In names and notes the source's numbering stands.

B1: AB17L3-1/N (bispecific antibody, human IgG1, kappa, lambda, L234A L235A)
heavy: EVQLVESGGGLVQPGGSLKLSCAASGFTFNTYAMNWVRQAPGKGLEWVGRIRSKYNNYATYYADSVKDRFTISRDDSKNTAYLQMNSLKTEDTAVYYCVRHGNFGNSYVSWFAYWGQGTLVTVSSASTKGPSVFPLAPSSKSTSGGTAALGCLVKDYFPEPVTVSWNSGALTSGVHTFPAVLQSSGLYSLSSVVTVPSSSLGTQTYICNVNHKPSNTKVDKRVEPKSCDKTHTCPPCPAPEAAGGPSVFLFPPKPKDTLMISRTPEVTCVVVDVSHEDPEVKFNWYVDGVEVHNAKTKPREEQYNSTYRVVSVLTVLHQDWLNGKEYKCKVSNKALAAPIEKTISKAKGQPREPQVYTLPPSREEMTKNQVSLTCLVKGFYPSDIAVEWESNGQPENNYKTTPPVLDSDGSFFLYSKLTVDKSRWQQGNVFSCSVMHEALHNHYTQKSLSLSPG
light 1: EIVLTQSPATLSLSPGERATLSCRASQSVNSNLNWYQQKPGQAPRLLIYHGSNRATGIPARFSGSGSGTDFTLTISSLEPEDFAVYYCQQFDYFKEHNTFGQGTKVEIKRTVAAPSVFIFPPSDEQLKSGTASVVCLLNNFYPREAKVQWKVDNALQSGNSQESVTEQDSKDSTYSLSSTLTLSKADYEKHKVYACEVTHQGLSSPVTKSFNRGEC
light 2: QTVVTQEPSLTVSPGGTVTLTCRSSTGAVTTSNYANWFQQKPGQAPRGLIGGTNKRAPGTPARFSGSLLGGKAALTLSGAQPEDEAEYYCALWYKQRWVFGGGTKLTVLGQPKAAPSVTLFPPSSEELQANKATLVCLISDFYPGAVTVAWKADSSPVKAGVETTTPSKQSNNKYAASSYLSLTPEQWKSHRSYSCQVTHEGSTVEKTVAPTECS
notes: Kappa-lambda body, lead optimization wave 1
B2: AB1L3-1/N (bispecific antibody, human IgG1, kappa, lambda, L234A L235A)
heavy: B1 heavy
light 1: B1 light 1 with Y93L, F94R, K95H
light 2: B1 light 2
notes: Kappa-lambda body: common heavy chain (hIgG1 L234A+L235A+P329A), kappa CEA light chain AB1, lambda CD3 light chain L3-1 (1A4); also called parental KL bispecific antibody
B3: AB72L3-1/N (bispecific antibody, human IgG1, kappa, lambda, L234A L235A)
heavy: B1 heavy
light 1: B1 light 1 with G51S, S52T, A55P, T56R, H97Y
light 2: B1 light 2
notes: Kappa-lambda body, lead optimization wave 2
B4: AB71L3-1/N (bispecific antibody, human IgG1, kappa, lambda, L234A L235A)
heavy: B1 heavy
light 1: B1 light 1 with G51S, A55P, T56H
light 2: B1 light 2
notes: as for B3
B5: AB73L3-1/N (bispecific antibody, human IgG1, kappa, lambda, L234A L235A)
heavy: B1 heavy
light 1: B1 light 1 with G51S, S52N, A55P, T56H, K95R, H97Y
light 2: B1 light 2
notes: as for B3

Columns and labels:
Assay in all cases: flow cytometry, transfected PEAK cells, 10 mcg/ml
human CEACAM4 = molecular target: T1, human CEACAM4 (human, UniProt O75871 36-244)
T1 construct: whole, on cells
T1 sequence (looked up): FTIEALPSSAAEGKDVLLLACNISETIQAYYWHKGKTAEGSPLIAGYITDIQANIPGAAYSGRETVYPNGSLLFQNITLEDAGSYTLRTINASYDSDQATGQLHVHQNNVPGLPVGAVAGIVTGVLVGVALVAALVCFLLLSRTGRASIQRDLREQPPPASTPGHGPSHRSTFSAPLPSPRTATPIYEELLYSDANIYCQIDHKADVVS
From the text: (§1) Vectors encoding the full-length version of human CEACAM 1, 3, 4, 5, 6, 7, 8, 18, 19, 20 and […] are used to express these proteins at the surface of PEAK and/or CHO cells as described in Example 1. Similarly, vectors encoding the full-length version of cyno CEACAM 5 and 6 are also used to express these proteins at the surface of PEAK and/or CHO cells. Non-transfected PEAK and/or CHO cells are used as negative control. Cells are harvested, counted, checked for viability and resuspended at 3×10⁶ cells/ml in FACS buffer (PBS 2% BSA, 0.1% NaN₃). 100 μl of the cell suspension are distributed in V-bottom 96-well plates (3×10⁵ cells/well). The supernatant is removed by centrifugation 3 minutes at 4° C., 1300 rpm and the cells incubated for 15 minutes at 4° C. with increasing concentrations of the antibody according to the invention. The antibodies carrying the anti-CEACAM5 arms to test are diluted in FACS buffer and the concentration range is 30 pM-500 nM. Cells are washed twice with cold FACS buffer and re-incubated for further 15 minutes at 4° C. with a compatible anti-human IgG secondary antibody. Cells are washed twice with cold FACS buffer and resuspended in 300 μl FACS buffer with 1:1500-diluted TOPRO-3 (Invitrogen). Fluorescence is measured using a FACSCalibur™ (BD Biosciences) or a Cytoflex Platform (Beckman Coulter). Dose-response binding curves are fitted using GraphPad Prism8 software. In the same manner, CEACAM1, CEACAM6 and other CEACAMs can be characterized.
(§2) For the bispecific antibodies AB17L3-1/N, AB71L3-1/N, AB72L3-1/N, AB73L3-1/N the MFI measured for binding to CEACAM5 transfected cells was found between 29000 and 41000 (Table 2). In contrast MFI found by using PEAK cells transfected with CEACAM 1,3,4,6,8 were found below 1000 with the only exception of a strong signal for AB72L3-1/N on CEACAM8 transfected cells. When MFI values obtained on transfected cells expressing any given CEACAM are divided by the values obtained on WT PEAK cells, “factors to PEAK WT” can be calculated (Table 3).

human CEACAM8 = molecular target: T2, human CEACAM8 (human, UniProt P31997 35-320)
T2 construct: whole, on cells
T2 sequence (looked up): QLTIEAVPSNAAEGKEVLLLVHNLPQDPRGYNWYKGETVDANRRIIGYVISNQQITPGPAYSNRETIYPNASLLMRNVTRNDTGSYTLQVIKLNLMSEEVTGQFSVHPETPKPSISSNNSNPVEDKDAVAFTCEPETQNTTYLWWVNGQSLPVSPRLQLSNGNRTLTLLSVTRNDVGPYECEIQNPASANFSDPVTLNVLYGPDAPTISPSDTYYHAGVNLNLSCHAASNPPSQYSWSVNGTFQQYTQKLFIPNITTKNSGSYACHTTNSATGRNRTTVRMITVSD
From the text: as §1, §2

human CEACAM1 = molecular target: T3, human CEACAM1 (human, UniProt P13688 35-526)
T3 construct: whole, on cells
T3 sequence (looked up): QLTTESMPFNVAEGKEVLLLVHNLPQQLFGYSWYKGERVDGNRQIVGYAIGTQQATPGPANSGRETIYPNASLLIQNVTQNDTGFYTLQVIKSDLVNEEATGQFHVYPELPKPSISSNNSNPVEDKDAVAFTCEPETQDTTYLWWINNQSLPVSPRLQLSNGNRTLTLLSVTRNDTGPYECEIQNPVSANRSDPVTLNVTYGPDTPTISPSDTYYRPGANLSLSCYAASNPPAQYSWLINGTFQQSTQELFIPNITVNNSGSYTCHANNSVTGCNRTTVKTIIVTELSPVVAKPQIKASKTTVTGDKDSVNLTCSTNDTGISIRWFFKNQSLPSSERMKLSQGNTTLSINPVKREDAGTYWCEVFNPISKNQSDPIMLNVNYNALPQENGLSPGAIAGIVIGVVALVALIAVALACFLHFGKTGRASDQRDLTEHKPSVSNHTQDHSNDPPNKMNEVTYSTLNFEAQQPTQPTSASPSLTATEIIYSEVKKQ
From the text: as §1, §2

human CEACAM3 = molecular target: T4, human CEACAM3 (human, UniProt P40198 35-252)
T4 construct: whole, on cells
T4 sequence (looked up): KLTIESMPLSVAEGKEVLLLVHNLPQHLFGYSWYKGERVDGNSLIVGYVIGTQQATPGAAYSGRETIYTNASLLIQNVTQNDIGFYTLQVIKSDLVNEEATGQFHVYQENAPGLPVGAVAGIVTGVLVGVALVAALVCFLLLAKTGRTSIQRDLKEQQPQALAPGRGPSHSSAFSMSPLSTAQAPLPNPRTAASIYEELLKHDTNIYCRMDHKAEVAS
From the text: as §1, §2

human CEACAM6 = molecular target: T5, human CEACAM6 (human, UniProt P40199 35-320)
T5 construct: whole, on cells; also called CD66c
T5 sequence (looked up): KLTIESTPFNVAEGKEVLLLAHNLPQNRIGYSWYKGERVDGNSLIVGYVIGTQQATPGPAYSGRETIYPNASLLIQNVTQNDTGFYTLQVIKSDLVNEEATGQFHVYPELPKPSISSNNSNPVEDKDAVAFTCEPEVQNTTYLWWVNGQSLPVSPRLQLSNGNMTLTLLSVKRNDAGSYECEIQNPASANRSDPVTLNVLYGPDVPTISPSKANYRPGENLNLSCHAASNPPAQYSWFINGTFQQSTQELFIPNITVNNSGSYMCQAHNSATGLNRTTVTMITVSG
From the text: as §1, §2

Binder | MFI (human CEACAM4) | MFI (human CEACAM8) | MFI (human CEACAM1) | MFI (human CEACAM3) | MFI (human CEACAM6)
B1 | 431 MFI | 411 MFI | 652 MFI | 633 MFI | 541 MFI
B2 | 330 MFI | 343 MFI | 441 MFI | 358 MFI | 373 MFI
B3 | 402 MFI | 6290 MFI | 652 MFI | 474 MFI | 562 MFI
B4 | 323 MFI | 391 MFI | 451 MFI | 358 MFI | 420 MFI
B5 | 352 MFI | 401 MFI | 542 MFI | 465 MFI | 490 MFI
